Reference: PMC3576024

Experiments:
Assay in all cases: DTNB colorimetric detection of released CoA, Michaelis-Menten fit
Type in all cases: biochemical, Aedes aegypti
Conditions in all cases: apparent Km; 0.4 mM acetyl-CoA, 50 mM Tris-HCl, 1.0 mg/mL BSA, room temperature
[1] = substrate: NCCc1ccc(O)c(O)c1
[2] = substrate: NC[C@H](O)c1ccc(O)cc1
[3] = substrate: NCCc1c[nH]c2ccccc12
[4] = substrate: NC[C@H](O)c1ccc(O)c(O)c1
[5] = substrate: NCCc1ccc(O)cc1
[6] = substrate: NCCc1c[nH]c2ccc(O)cc12

Row | Protein | Km [1] [µM] | kcat [1] [s⁻¹] | kcat/Km [1] [M⁻¹ s⁻¹] | Km [2] [µM] | kcat [2] [s⁻¹] | kcat/Km [2] [M⁻¹ s⁻¹] | Km [3] [µM] | kcat [3] [s⁻¹] | kcat/Km [3] [M⁻¹ s⁻¹] | Km [4] [µM] | kcat [4] [s⁻¹] | kcat/Km [4] [M⁻¹ s⁻¹] | Km [5] [µM] | kcat [5] [s⁻¹] | kcat/Km [5] [M⁻¹ s⁻¹] | Km [6] [µM] | kcat [6] [s⁻¹] | kcat/Km [6] [M⁻¹ s⁻¹]
1 | aaNAT1 (PaaNAT1) (Aedes aegypti) (protein) MASKMSTVSSDAKGAIVKPSSTDDSTLPLDEVDTNISIELITEDDAEDVLKLLKKFFFKDEPLNTFVNLGECKELEKYSTKNLHEHCSFKAVNGRGEIVGVNINGLINRPKETDEPPAKLADGCEHPKFKKIMALMDYVDEHFNIFDLYPDVDRMLDVKIMSVDSRYRGLGIAGKLTDRTMQYVKDNNIKLVHVLCSSHFSARVMEKLDFEEVYKLDYSDYLVNGEQVFDPEKPHTAVRILTKRLA | 190 ± 70 | 7.3 ± 0.742 | 38400 | 140 ± 80 | 7.26 ± 1.12 | 51900 | 160 ± 40 | 7.34 ± 0.528 | 45900 | 160 ± 40 | 7.76 ± 0.577 | 48500 | 170 ± 40 | 6.77 ± 0.413 | 39800 | 230 ± 60 | 7.54 ± 0.595 | 32800
2 | aaNAT2 (PaaNAT2) (Aedes aegypti) (protein) MLDSKLNNIRFETISSKYYDDVIEHLRQTFFADEPLNKAVNLTRPGQGHPLLEQHSLSTLKDNVSIMAISNDGDIAGVALNGILYGNTDIEKSREKLNEIQDESFKKIFKLLYEQNLKINLFKQFDVDKIFEIRILSVDSRFRGKGLAKKLIEKSEELALDRGFQVMKTDATGAFSQRVVSSLGFITKCEINYTDYLDENGEQIFVVDPPHEKLKIMCKVIN | 130 ± 50 | 2.56 ± 0.25 | 19700 | 270 ± 40 | 3.65 ± 0.175 | 13500 | 170 ± 40 | 3.05 ± 0.197 | 17900 | 420 ± 60 | 3.47 ± 0.192 | 8270 | 170 ± 30 | 3.17 ± 0.183 | 18600 | 230 ± 50 | 3.16 ± 0.198 | 13800
